T1: DAXX helical bundle (DHB) domain of death domain-associated protein (DAXX), aa 55-144 (UniProt Q9UER7 55-144)
T1 chain: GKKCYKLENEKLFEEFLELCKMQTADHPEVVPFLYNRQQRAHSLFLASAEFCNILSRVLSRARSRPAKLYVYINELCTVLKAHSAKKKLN

T2: DAXX interaction domain of ATRX (DID_(ATRX)), aa 1,189-1,326 (human, UniProt P46100 1189-1326)
T2 construct: also called full length DID_(ATRX); ATRX_(1,189–1,326)
T2 sequence (looked up): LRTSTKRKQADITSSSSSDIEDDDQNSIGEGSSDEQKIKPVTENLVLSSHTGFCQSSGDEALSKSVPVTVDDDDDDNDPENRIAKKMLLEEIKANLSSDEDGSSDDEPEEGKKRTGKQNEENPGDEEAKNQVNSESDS

B1: DAXX helical bundle (DHB) domain of death domain-associated protein (DAXX), aa 55-144 (domain or fragment, UniProt Q9UER7 55-144, looked up)
chain: T1 chain
notes: Death domain-associated protein (DAXX), DHB domain, residues 55-144; they may stand in the supplementary file; also called DHB_(DAXX); DBH_(DAXX)
B2: ATRX_(1,244–1,285), 42-residue loop-helix segment of DID_(ATRX) (domain or fragment, human, UniProt P46100 1244-1285, looked up)
chain: SSGDEALSKSVPVTVDDDDDDNDPENRIAKKMLLEEIKANLS
notes: source: co-expressed with DHB_(DAXX) and purified for the crystal
B3: ATRX_(1,259–1,285), minimum ATRX motif of 27 residues (peptide, UniProt P46100 1259-1285, looked up)
peptide: DDDDDDNDPENRIAKKMLLEEIKANLS
notes: begins with the polyD loop 1259-DDDDDD-1264
B4: ATRX_(1,265–1,285), α-helix frame only (αDID), wild type peptide (peptide, UniProt P46100 1265-1285, looked up)
peptide: NDPENRIAKKMLLEEIKANLS
notes: the wild type is called 'wild type peptide control'; also called WT

The results in this text go back to paper PMC5636754, “Structural and biochemical characterization of DAXX-ATRX interaction” (Protein & Cell, 2017).

One assay deals with T1, DAXX helical bundle (DHB) domain of …. Nature of the assay: ITC.
Settings: not given
The molecule NDPENRIAKKMLLEQIKANLS (peptide, UniProt P46100 1265-1285, looked up, source: synthetic peptide) [ATRX_(1,265–1,285) E1279Q mutant peptide] yielded a Kd of 3.2 µM. In other words, the single-digit micromolar range.

As to NNPENRIAKKMLLEEIKANLS (peptide, UniProt P46100 1265-1285, looked up, source: synthetic peptide) [ATRX_(1,265–1,285) D1266N mutant peptide], the affinity, expressed as Kd, was 7 µM. The same measure, in the same setting: under NDPQNRIAKKMLLEEIKANLS (peptide, UniProt P46100 1265-1285, looked up, source: synthetic peptide) [ATRX_(1,265–1,285) E1268Q mutant peptide] stands 5.6 µM. Turning to NDPENRIAAKMLLEEIKANLS (peptide, UniProt P46100 1265-1285, looked up, source: synthetic peptide) [ATRX_(1,265–1,285) K1273A mutant peptide], the dissociation constant Kd came out at 2.3 µM.

The next assay deals with T2, DAXX interaction domain of ATRX …. The experiment in a line: ITC; DHB_(DAXX) titrated with ATRX fragments or peptides. As to conditions: both partners purified.
Molecule B1 gave a Kd of 4.5 µM.

A further assay has as its target B1. The description is as above. As to conditions: both partners purified.
As for B2, the affinity, expressed as Kd, was 0.07 µM. This lies in the double-digit nanomolar range. Still for that read-out and setting: under B3 stands 0.07 µM. On the same count and under the same terms, under B4 stands 1 µM.

NDPENRIAKKMLLEQIKANLS (peptide, UniProt P46100 1265-1285, looked up, source: synthetic peptide) [ATRX_(1,265–1,285) E1279Q mutant peptide]: the binding result is listed as “binds”. For NDPENRIAKKMLLEEAKANLS (peptide, UniProt P46100 1265-1285, looked up, source: synthetic peptide) [ATRX_(1,265–1,285) I1280A mutant peptide], the Kd worked out at 10.9 µM. This counts as double-digit micromolar. Consider NNPENRIAKKMLLEEIKANLS (peptide, UniProt P46100 1265-1285, looked up, source: synthetic peptide) [ATRX_(1,265–1,285) D1266N mutant peptide], for which the binding result was “binds”. The same measure, in the same setting: in the case of NDPQNRIAKKMLLEEIKANLS (peptide, UniProt P46100 1265-1285, looked up, source: synthetic peptide) [ATRX_(1,265–1,285) E1268Q mutant peptide] it was “binds”. As for NDPENRIAAKMLLEEIKANLS (peptide, UniProt P46100 1265-1285, looked up, source: synthetic peptide) [ATRX_(1,265–1,285) K1273A mutant peptide], the binding result is recorded as “binds”. For NDPENRIAKKMLAEEIKANLS (peptide, UniProt P46100 1265-1285, looked up, source: synthetic peptide) [ATRX_(1,265–1,285) L1277A mutant peptide], the equilibrium dissociation constant (Kd) is 80.6 µM. This counts as double-digit micromolar.
